Experimental data taken from the RNAGym collection of RNA variant scans (doi:10.7554/elife.90254).

B1: LINE1-full (parent)
chain: UACGUAGGUGGUUUUCCCCUGAUAGUGCUAAGGGGGCCUGGAAGUUUGGACUGGGCAGAGCUCAACACAGCGUGGCAAAGUGGCUGUGGCUAGACUGCCUCUCUGGAUUCCUCGUCACUCAGCAGGGCAUCUCUGAGAGAAAUGCC

Variants of: B1
Assay: self-cleavage, relative activity (ratio to wild type); higher = more cleavage; in vitro, sequencing; the parent is a self-cleaving ribozyme

Row | Variant | self-cleavage
1 | UACGUAGGUGGUUUUCCCCUGAUAGUGCUAAGGCGGCCUGGAAGUUUGGACUGGGCAGAGCUCAACACAGCGUGGCAAAGUGGCUGUGGCUAGACUGCCUCUCUGGAUUCCUCGUCACUCAGCAGGGCAUCUCUGAGAGAAACGCC [G34C U143C] | 2
2 | UACGUAGGUGGUUUUCCCCUGAUAGUGCUAAGGUGGCCUGGUAGUUUGGACUGGGCAGAGCUCAACACAGCGUGGCAAAGUGGCUGUGGCUAGACUGCCUCUCUGGAUUCCUCGUCACUCAGCAGGGCAUCUCUGAGAGAAAUGCC [G34U A42U] | 1.15
3 | UACGUAGGUGGUUUUCCCCUGAUAGUGCUAAGGUGGCCUGGAAGUUUGGUCUGGGCAGAGCUCAACACAGCGUGGCAAAGUGGCUGUGGCUAGACUGCCUCUCUGGAUUCCUCGUCACUCAGCAGGGCAUCUCUGAGAGAAAUGCC [G34U A50U] | 0.39
4 | UACGUAGGUGGUUUUCCCCUGAUAGUGCUAAGGUGGCCUGGAAGUUUGGACUGGGCAGAGCUCAACGCAGCGUGGCAAAGUGGCUGUGGCUAGACUGCCUCUCUGGAUUCCUCGUCACUCAGCAGGGCAUCUCUGAGAGAAAUGCC [G34U A67G] | 0.54
5 | UACGUAGGUGGUUUUCCCCUGAUAGUGCUAAGGUGGCCUGGAAGUUUGGACUGGGCAGAGCUCAACACGGCGUGGCAAAGUGGCUGUGGCUAGACUGCCUCUCUGGAUUCCUCGUCACUCAGCAGGGCAUCUCUGAGAGAAAUGCC [G34U A69G] | 0.47
6 | UACGUAGGUGGUUUUCCCCUGAUAGUGCUAAGGUGGCCUGGAAGUUUGGACUGGGCAGAGCUCAACACAGCGUGGCAAAGUGGCUGUGGCUGGACUGCCUCUCUGGAUUCCUCGUCACUCAGCAGGGCAUCUCUGAGAGAAAUGCC [G34U A92G] | 0.14
7 | UACGUAGGUGGUUUUCCCCUGAUAGUGCUAAGGUGGCCUGGAAGUUUGGACUGGGCAGAGCUCAACACAGCGUGGCAAAGUGGCUGUGGCUAGGCUGCCUCUCUGGAUUCCUCGUCACUCAGCAGGGCAUCUCUGAGAGAAAUGCC [G34U A94G] | 0.26
8 | UACGUAGGUGGUUUUCCCCUGAUAGUGCUAAGGUGGCCUGGAAGUUUGGACUGGGCAGAGCUCAACACAGCGUGGCAAAGUGGCUGUGGCUAGACUGCCUCUCUGGAUUCCUCGUCACUCAGCUGGGCAUCUCUGAGAGAAAUGCC [G34U A124U] | 1.6
9 | UACGUAGGUGGUUUUCCCCUGAUAGUGCUAAGGUGGCCUGGAAGUUUGGACUGGGCAGAGCUCAACACAGCGUGGCAAAGUGGCUGUGGCUAGACUGCCUCUCUGGAUUCCUCGUCACUCAGCAGGGCAUCUCUGGGAGAAAUGCC [G34U A136G] | 1.54
10 | UACGUAGGUGGUUUUCCCCUGAUAGUGCUAAGGUGGCCUGGAAGUUUGGACUGGGCAGAGCUCAACACAGCGUGGCAAAGUGGCUGUGGCUAGACUGCCUCUCUGGAUUCCUCGUCACUCAGCAGGGCAUCUCUGAGAGGAAUGCC [G34U A140G] | 1.67
11 | UACGUAGGUGGUUUUCCCCUGAUAGUGCUAAGGUGGCCUGGAAGUUUGGACUGGGCAGAGCUCAACACAGCGUGGCAAAGUGGCUGUGGCUAGACUGCCUCUCUGGAUUCCUCGUCACUCAGCAGGGCAUCUCUGAGAGUAAUGCC [G34U A140U] | 1.64
12 | UACGUAGGUGGUUUUCCCCUGAUAGUGCUAAGGUGGCCUGGAAGUUUGGACUGGGCAGAGCUAAACACAGCGUGGCAAAGUGGCUGUGGCUAGACUGCCUCUCUGGAUUCCUCGUCACUCAGCAGGGCAUCUCUGAGAGAAAUGCC [G34U C63A] | 0.04
13 | UACGUAGGUGGUUUUCCCCUGAUAGUGCUAAGGUGGCCUGGAAGUUUGGACUGGGCAGAGCUCAACACAGCGUGGCAAAGUGGCUGUGGUUAGACUGCCUCUCUGGAUUCCUCGUCACUCAGCAGGGCAUCUCUGAGAGAAAUGCC [G34U C90U] | 0
14 | UACGUAGGUGGUUUUCCCCUGAUAGUGCUAAGGUGGCCUGGAAGUUUGGACUGGGCAGAGCUCAACACAGCGUGGCAAAGUGGCUGUGGCUAGACUGCCUCUCUGGAUUCCUCGUCACUCAGCAGGGCAUCUCUGAGAGAAAUGCU [G34U C146U] | 1.39
15 | UACGUAGGUGGUUUUCCCCUGAUAGUGCUAAGGUGGCCUGGAAGUAUGGACUGGGCAGAGCUCAACACAGCGUGGCAAAGUGGCUGUGGCUAGACUGCCUCUCUGGAUUCCUCGUCACUCAGCAGGGCAUCUCUGAGAGAAAUGCC [G34U U46A] | 1.32
16 | UACGUAGGUGGUUUUCCCCUGAUAGUGCUAAGGUGGCCUGGAAGUUGGGACUGGGCAGAGCUCAACACAGCGUGGCAAAGUGGCUGUGGCUAGACUGCCUCUCUGGAUUCCUCGUCACUCAGCAGGGCAUCUCUGAGAGAAAUGCC [G34U U47G] | 1.04
17 | UACGUAGGUGGUUUUCCCCUGAUAGUGCUAAGGUGGCCUGGAAGUUUGGACUGGGCAGAGCCCAACACAGCGUGGCAAAGUGGCUGUGGCUAGACUGCCUCUCUGGAUUCCUCGUCACUCAGCAGGGCAUCUCUGAGAGAAAUGCC [G34U U62C] | 0.02
18 | UACGUAGGUGGUUUUCCCCUGAUAGUGCUAAGGUGGCCUGGAAGUUUGGACUGGGCAGAGCUCAACACAGCGUGGCAAAGUGGCUGUGGCUAGACUGCCCCUCUGGAUUCCUCGUCACUCAGCAGGGCAUCUCUGAGAGAAAUGCC [G34U U100C] | 1.5
19 | UACGUAGGUGGUUUUCCCCUGAUAGUGCUAAGGUGGCCUGGAAGUUUGGACUGGGCAGAGCUCAACACAGCGUGGCAAAGUGGCUGUGGCUAGACUGCCUCUCCGGAUUCCUCGUCACUCAGCAGGGCAUCUCUGAGAGAAAUGCC [G34U U104C] | 1.34
20 | UACGUAGGUGGUUUUCCCCUGAUAGUGCUAAGGUGGCCUGGAAGUUUGGACUGGGCAGAGCUCAACACAGCGUGGCAAAGUGGCUGUGGCUAGACUGCCUCUCUGGACUCCUCGUCACUCAGCAGGGCAUCUCUGAGAGAAAUGCC [G34U U108C] | 1.56

Row | Variant | self-cleavage
21 | UACGUAGGUGGUUUUCCCCUGAUAGUGCUAAGGUGGCCUGGAAGUUUGGACUGGGCAGAGCUCAACACAGCGUGGCAAAGUGGCUGUGGCUAGACUGCCUCUCUGGAUUCCUCGCCACUCAGCAGGGCAUCUCUGAGAGAAAUGCC [G34U U115C] | 1.84
22 | UACGUAGGUGGUUUUCCCCUGAUAGUGCUAAGGGAGCCUGGAAGUUUGGACUGGGCAGAGCUCAACACAGCGUGGCAAAGUGGCUGUGGCUAGACUGCCUCUCUGGAUUCCUCGUCACUCAGCAGGGCAUCUCUGAGAGAAAUGCC [G35A] | 1.1
23 | UACGUAGGUGGUUUUCCCCUGAUAGUGCUAAGGGAGCCUGGGAGUUUGGACUGGGCAGAGCUCAACACAGCGUGGCAAAGUGGCUGUGGCUAGACUGCCUCUCUGGAUUCCUCGUCACUCAGCAGGGCAUCUCUGAGAGAAAUGCC [G35A A42G] | 1.17
24 | UACGUAGGUGGUUUUCCCCUGAUAGUGCUAAGGGAGCCUGGAAGUUUGGGCUGGGCAGAGCUCAACACAGCGUGGCAAAGUGGCUGUGGCUAGACUGCCUCUCUGGAUUCCUCGUCACUCAGCAGGGCAUCUCUGAGAGAAAUGCC [G35A A50G] | 0.58
25 | UACGUAGGUGGUUUUCCCCUGAUAGUGCUAAGGGAGCCUGGAAGUUUGGACUGGGCUGAGCUCAACACAGCGUGGCAAAGUGGCUGUGGCUAGACUGCCUCUCUGGAUUCCUCGUCACUCAGCAGGGCAUCUCUGAGAGAAAUGCC [G35A A57U] | 0.05
26 | UACGUAGGUGGUUUUCCCCUGAUAGUGCUAAGGGAGCCUGGAAGUUUGGACUGGGCAGAGCUCUACACAGCGUGGCAAAGUGGCUGUGGCUAGACUGCCUCUCUGGAUUCCUCGUCACUCAGCAGGGCAUCUCUGAGAGAAAUGCC [G35A A64U] | 0.31
27 | UACGUAGGUGGUUUUCCCCUGAUAGUGCUAAGGGAGCCUGGAAGUUUGGACUGGGCAGAGCUCAGCACAGCGUGGCAAAGUGGCUGUGGCUAGACUGCCUCUCUGGAUUCCUCGUCACUCAGCAGGGCAUCUCUGAGAGAAAUGCC [G35A A65G] | 0.05
28 | UACGUAGGUGGUUUUCCCCUGAUAGUGCUAAGGGAGCCUGGAAGUUUGGACUGGGCAGAGCUCAACACGGCGUGGCAAAGUGGCUGUGGCUAGACUGCCUCUCUGGAUUCCUCGUCACUCAGCAGGGCAUCUCUGAGAGAAAUGCC [G35A A69G] | 0.21
29 | UACGUAGGUGGUUUUCCCCUGAUAGUGCUAAGGGAGCCUGGAAGUUUGGACUGGGCAGAGCUCAACACUGCGUGGCAAAGUGGCUGUGGCUAGACUGCCUCUCUGGAUUCCUCGUCACUCAGCAGGGCAUCUCUGAGAGAAAUGCC [G35A A69U] | 0.02
30 | UACGUAGGUGGUUUUCCCCUGAUAGUGCUAAGGGAGCCUGGAAGUUUGGACUGGGCAGAGCUCAACACAGCGUGGCAGAGUGGCUGUGGCUAGACUGCCUCUCUGGAUUCCUCGUCACUCAGCAGGGCAUCUCUGAGAGAAAUGCC [G35A A78G] | 0.9
31 | UACGUAGGUGGUUUUCCCCUGAUAGUGCUAAGGGAGCCUGGAAGUUUGGACUGGGCAGAGCUCAACACAGCGUGGCAAGGUGGCUGUGGCUAGACUGCCUCUCUGGAUUCCUCGUCACUCAGCAGGGCAUCUCUGAGAGAAAUGCC [G35A A79G] | 1.36
32 | UACGUAGGUGGUUUUCCCCUGAUAGUGCUAAGGGAGCCUGGAAGUUUGGACUGGGCAGAGCUCAACACAGCGUGGCAAAGUGGCUGUGGCUCGACUGCCUCUCUGGAUUCCUCGUCACUCAGCAGGGCAUCUCUGAGAGAAAUGCC [G35A A92C] | 0.05
33 | UACGUAGGUGGUUUUCCCCUGAUAGUGCUAAGGGAGCCUGGAAGUUUGGACUGGGCAGAGCUCAACACAGCGUGGCAAAGUGGCUGUGGCUAGACUGCCUCUCUGGUUUCCUCGUCACUCAGCAGGGCAUCUCUGAGAGAAAUGCC [G35A A107U] | 1.41
34 | UACGUAGGUGGUUUUCCCCUGAUAGUGCUAAGGGAGCCUGGAAGUUUGGACUGGGCAGAGCUCAACACAGCGUGGCAAAGUGGCUGUGGCUAGACUGCCUCUCUGGAUUCCUCGUCGCUCAGCAGGGCAUCUCUGAGAGAAAUGCC [G35A A117G] | 1.7
35 | UACGUAGGUGGUUUUCCCCUGAUAGUGCUAAGGGAGCCUGGAAGUUUGGACUGGGCAGAGCUCAACACAGCGUGGCAAAGUGGCUGUGGCUAGACUGCCUCUCUGGAUUCCUCGUCUCUCAGCAGGGCAUCUCUGAGAGAAAUGCC [G35A A117U] | 0.56
36 | UACGUAGGUGGUUUUCCCCUGAUAGUGCUAAGGGAGCCUGGAAGUUUGGACUGGGCAGAGCUCAACACAGCGUGGCAAAGUGGCUGUGGCUAGACUGCCUCUCUGGAUUCCUCGUCACUCAGCAGGGCAUCUCUGGGAGAAAUGCC [G35A A136G] | 1.21
37 | UACGUAGGUGGUUUUCCCCUGAUAGUGCUAAGGGAGCCUGGAAGUUUGGACUGGGCAGAGCUCAACACAGCGUGGCAAAGUGGCUGUGGCUAGACUGCCUCUCUGGAUUCCUCGUCACUCAGCAGGGCAUCUCUGAGAGGAAUGCC [G35A A140G] | 0.81
38 | UACGUAGGUGGUUUUCCCCUGAUAGUGCUAAGGGAGCCUGGAAGUUUGGACUGGGCAGAGCUCAACACAGCGUGGCAAAGUGGCUGUGGCUAGACUGCCUCUCUGGAUUCCUCGUCACUCAGCAGGGCAUCUCUGAGAGAAGUGCC [G35A A142G] | 1.14
39 | UACGUAGGUGGUUUUCCCCUGAUAGUGCUAAGGGAGCCUGGAAGUUUGGACUGGGCAGAGCUCAACACAGCGUGGCAAAGUGGCUGUGGCUAGACUGCCUCUCUGGAUUCCUCGUCACUCAGCAGGGCAUUUCUGAGAGAAAUGCC [G35A C131U] | 1.67
